Kd data for 3 molecules are collected here from patent publication US20140302026A1 (published 2014).

One may read the Kd as the equilibrium constant for the complex coming apart. Low readings indicate a tighter complex, high ones a looser complex.

The target in assay [1] is artificial endostatin dimer (UniProt P39060). Description: SPR (Biacore). (In general: In SPR one partner is held on a chip, and binding of the other changes the refractive index at the surface.)
For another assay, the target named is fibronectin (UniProt P02751 32-2477). The assay is described as follows: SPR (Biacore).

The molecule “fibronectin (from UniProt P02751 32-2477)” gave a Kd in assay [1] of 4.84 nM.

B1: Human VEGF (R&D) (ligand)
chain: APMAEGGGQNHHEVVKFMDVYQRSYCHPIETLVDIFQEYPDEIEYIFKPSCVPLMRCGGCCNDEGLECVPTEESNITMQIMRIKPHQGQHIGEMSFLQHNKCECRPKKDRARQENPCGPCSERRKHLFVQDPQTCKCSCKNTDSRCKARQLELNERTCRCDKPRR
In the assay with fibronectin, B1 had a Kd of 1.35 nM.

B2: human NC-1 (hNC-1) trimer of collagen 18 (other)
chain: SGVRLWATRQAMLGQVHEVPEGWLIFVAEQEELYVRVQNGFRKVQLEARTPLPRGTDNEVAALQPPVVQLHDSNPYPRREHPHPTARPWRADDILASPPRLPEPQPYPGAPHHSSYVHLRPARPTSPPAHSHRDFQPVLHLVALNSPLSGGMRGIRGADFQCFQQARAVGLAGTFRAFLSSRLQDLYSIVRRADRAAVPIVNLKDELLFPSWEALFSGSEGPLKPGARIFSFDGKDVLRHPTWPQKSVWHGSDPNGRRLTESYCETWRTEAPSATGQASSLLGGRLLGQSAASCHHAYIVLCIENSFMTASK
B2: in the assay with fibronectin, the Kd was 8.4 nM.
